The target in experiment [1] is T1, human CLDN6 (human, UniProt P56747 1-220).
T1 sequence: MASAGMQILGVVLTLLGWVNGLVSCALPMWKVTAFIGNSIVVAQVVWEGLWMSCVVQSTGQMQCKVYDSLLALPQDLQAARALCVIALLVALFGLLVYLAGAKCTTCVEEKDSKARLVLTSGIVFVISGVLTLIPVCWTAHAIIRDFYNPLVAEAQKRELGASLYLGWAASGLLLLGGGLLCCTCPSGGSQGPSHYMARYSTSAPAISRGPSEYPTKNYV
Kind of experiment: cell-based or functional assay.

Experiment [2] concerns the target T1, human CLDN6. The experiment in a line: cell-based or functional assay. This is another data set of the same source.
A further experiment addresses T2, mouse CLDN3 (mouse, UniProt Q9Z0G9 1-219).
T2 construct: whole, on cells; also called mCLDN3; BaF3_mCLDN3
T2 sequence (looked up): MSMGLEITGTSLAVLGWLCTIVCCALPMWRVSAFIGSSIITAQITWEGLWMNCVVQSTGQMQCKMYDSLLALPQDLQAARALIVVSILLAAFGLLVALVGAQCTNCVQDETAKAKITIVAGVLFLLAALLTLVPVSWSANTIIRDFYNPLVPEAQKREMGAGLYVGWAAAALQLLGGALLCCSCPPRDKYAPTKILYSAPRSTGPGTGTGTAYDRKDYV
Kind of experiment: FACS on Ba/F3 transfectant, antibody 20 micro g/ml, FITC anti-human IgG. The procedure: (§1) To evaluate the binding activity and specificity of the generated CLDN6-TRABs against CLDN6 and other Claudin family antigens, FACS analysis was conducted as follows. Ba/F3 transfectants stably express a kind of protein selected from human CLDN3 (hCLDN3), human CLDN4 (hCLDN4), human CLDN6 (hCLDN6), human CLDN9 (hCLDN9), mouse CLDN3 (mCLDN3), mouse CLDN4 (mCLDN4) and mouse CLDN6 (mCLDN6), were generated using similar method described in WO2008/087978, and named BaF3_hCLDN3, BaF3_hCLDN4, BaF3_hCLDN6, BaF3_hCLDN9, BaF3 mCLDN3, BaF3 mCLDN4, BaF3 mCLDN6, respectively. Each of the CLDN6-TRABs (CH01/CD3, CH02/CD3, CH03/CD3, CH04/CD3) was incubated with the Ba/F3 transfectants at an antibody concentration of 20 micro g/ml in FACS buffer (0.5% BSA containing autoMACS Rinsing Solution, Miltenyl Biotec). Binding activities of each CLDN6-TRAB to the Claudin family proteins (hCLDN3, hCLDN4, hCLDN6, hCLDN9, mCLDN3, mCLDN4, mCLDN6) were examined by incubation of FITC-conjugated goat anti human IgG (BeckmanCoulter), represented as Geo-mean value. Sample processing was conducted on FACSVerse (BD).
(§2) Claudin family proteins have two extracellular domains. The sequence of the first extracellular domain in human CLDN9 is almost the same compared with the first extracellular domain of human CLDN6. For the second extracellular domain of human CLDN9, there are only two amino acids different from the ones at their corresponding positions in human CLDN6 (FIG. 2). The glutamine at position 156 of human Claudin 6 (position 156 in the sequence shown in SEQ ID NO: 44 or 45) was substituted to leucine to make a human CLDN6 mutant comprising the same amino acid as human Claudin 9 at position 156. This human CLDN6 mutant was named as hCLDN6(Q156L) (SEQ ID NO: 53). Ba/F3 transfectant stably express hCLDN6(Q156L) was generated using similar method described in WO2008/087978. The established Ba/F3 transfectant was named BaF3_hCLDN6(Q156L). Binding activity of the generated CLDN6-TRABs against BaF3_hCLDN6(Q156L) was measured using the above mentioned FACS method and the results are shown in FIG. 1 and Table 3.

Another experiment deals with T3, human CLDN9 (human, UniProt O95484 1-217).
T3 construct: whole, on cells; also called hCLDN9; BaF3_hCLDN9
T3 sequence (looked up): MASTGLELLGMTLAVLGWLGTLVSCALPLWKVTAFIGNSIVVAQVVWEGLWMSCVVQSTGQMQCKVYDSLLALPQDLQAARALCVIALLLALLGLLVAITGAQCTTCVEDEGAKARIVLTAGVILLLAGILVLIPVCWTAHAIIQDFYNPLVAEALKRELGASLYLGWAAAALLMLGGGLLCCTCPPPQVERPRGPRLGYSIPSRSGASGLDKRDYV
The experiment is described as above. The procedure: as §1, §2

Experiment [3] concerns the target T1, human CLDN6. Described as above. The procedure:
as §1, §2

A further experiment addresses T4, hCLDN6(Q156L) (human, UniProt P56747 1-220).
T4 construct: Stably expressed on Ba/F3 cells; also called human CLDN6 mutant; BaF3_hCLDN6(Q156L)
T4 chain: T1 sequence with Q156L
The experiment is described as above. The procedure:
as §1, §2

The next experiment addresses T5, mouse CLDN4 (mouse, UniProt O35054 1-210).
T5 construct: whole, on cells; also called mCLDN4; BaF3_mCLDN4
T5 sequence (looked up): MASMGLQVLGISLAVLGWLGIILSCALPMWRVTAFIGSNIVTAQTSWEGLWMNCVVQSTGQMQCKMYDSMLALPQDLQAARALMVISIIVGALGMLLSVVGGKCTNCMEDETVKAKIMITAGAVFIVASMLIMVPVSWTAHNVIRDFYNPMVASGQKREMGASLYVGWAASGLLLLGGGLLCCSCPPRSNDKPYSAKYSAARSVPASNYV
The experiment is described as above. The procedure: as §1, §2

Positions count from the first letter of the chain named.

B1: CH04/CD3 (bispecific antibody, human IgG1, kappa, N297A)
heavy 1: EVQLQQSGPELVKPGASMKISCKASGYSFTGYTMNWVKQSHGKNLEWIGLINPYNGGTIYNQKFKGKATLTVDKSSSTAYMELLSLTSEDSAVYYCARDYGFVLDYWGQGTTLTVSSASTKGPSVFPLAPSSKSTSGGTAALGCLVKDYFPEPVTVSWNSGALTSGVHTFPAVLQSSGLYSLSSVVTVPSSSLGTQTYICNVNHKPSNTKVDKKVEPKSCDKTHTCPPCPAPELRGGPKVFLFPPKPKDTLMISRTPEVTCVVVDVSHEDPEVKFNWYVDGVEVHNAKTKPREEQYASTYRVVSVLTVLHQDWLNGKEYKCKVSNKALPAPIEKTISKAKGQPREPQVYTLPPSREEMTKNQVSLTCLVKGFYPSDIAVEWESNGQPENNYKTTPPYLDSDGSFFLYSKLTVDKSRWQQGNVFSCSVMHEALHNHYTQESLSLSP
light 1: DIVLTQSPSIMSVSPGEKVTITCSASSSVSYMHWFQQKPGTSPKLCIYSTSNLASGVPARFSGRGSGTSYSLTISRVAAEDAATYYCQQRSNYPPWTFGGGTKLEIKRTVAAPSVFIFPPSDEQLKSGTASVVCLLNNFYPREAKVQWKVDNALQSGNSQESVTEQDSKDSTYSLSSTLTLSKADYEKHKVYACEVTHQGLSSPVTKSFNRGEC
heavy 2: QVQLVESGGGVVQPGGSLRLSCAASGFTFSNAWMHWVRQAPGKGLEWVAQIKDKSQNYATYVAESVKGRFTISRADSKNSIYLQMNSLKTEDTAVYYCRYVHYAAGYGVDIWGQGTTVTVSSASTKGPSVFPLAPSSKSTSGGTAALGCLVKDYFPEPVTVSWNSGALTSGVHTFPAVLQSSGLYSLSSVVTVPSSSLGTQTYICNVNHKPSNTKVDKKVEPKSCDKTHTCPPCPAPELRGGPKVFLFPPKPKDTLMISRTPEVTCVVVDVSHEDPEVKFNWYVDGVEVHNAKTKPREEQYASTYRVVSVLTVLHQDWLNGKEYKCKVSNKALPAPIEKTISKAKGQPREPQVYTLPPSRKEMTKNQVSLTCLVKGFYPSDIAVEWESNGQPENNYKTTPPYLDSDGSFFLYSKLTVDKSRWQQGNVFSCSVMHEALHNHYTQKSLSLSP
light 2: DIVMTQSPLSLPVTPGEPASISCRSSQPLVHSNRNTYLHWYQQKPGQAPRLLIYKVSNRFSGVPDRFSGSGSGTDFTLKISRVEAEDVGVYYCGQGTQVPYTFGQGTKLEIKRTVAAPSVFIFPPSDEQLKSGTASVVCLLNNFYPREAKVQWKVDNALQSGNSQESVTEQDSKDSTYSLSSTLTLSKADYEKHKVYACEVTHQGLSSPVTKSFNRGEC
notes: Made by Fab arm exchange of the bivalent anti-CLDN6 antibody CH04 with the bivalent anti-CD3 antibody CD3-1; human IgG1 constant region; One anti-CLDN6 arm and one anti-CD3 arm; also called CLDN6-TRAB; CLDN6-targeted T-cell redirecting bispecific antibody
Regarding B1, the “EC50 (read off the curve), Jurkat/NFAT-RE luciferase reporter, target cells PA-1” value in the experiment with human CLDN6 [1] is approximately 0.04 nM. Moreover, the “EC50 (read off the curve), Jurkat/NFAT-RE luciferase reporter, target cells ABC-1” value with human CLDN6 [2] was approximately 0.06 nM. Moreover, the “Geo-mean value of FACS” value came out at 27 in the experiment with mouse CLDN3; 186 in the experiment with human CLDN9; 3480 with human CLDN6 [3]; 80 in the experiment with hCLDN6(Q156L); 23 in the experiment with mouse CLDN4.

For the origin of these results see patent publication US20210054076A1 (Chugai, published 2021).
